Results: the supplement of paper PMC10567573

B1: ADD1 (parent)
chain: GEGTGSPPKWQIGEQEFEALMRML
B2: PLK2 (parent)
chain: YAELGQCSVFPATDAPEQFISQVT

Variants of: B1
Experiment: protein stability index of a GFP-peptide fusion (GPS, HEK-293T) (PSI 1-6); higher = more stable
Conditions: c terminus: a fixed tail appended
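Further: lentivirally expressed fusions sorted by FACS into six bins by GFP to DsRed ratio, PSI derived from sequencing read proportions per bin multiplied by bin number.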

Protein stability index of substitutions, site by site:
Q11: M 3.54, I 2.97, V 2.86, E 3.24, L 2.98, C 2.76, T 3.51, F 3.22, A 2.86, N 3.53, K 4.08, R 3.46, H 3.23, P 3.33, G 2.66, W 3.04, D 3.82, Y 2.57, S 3.42
E2: V 3.94, F 2.73, L 3.15, G 3.06, S 2.73, D 2.79, W 2.8, Y 2.28, C 3.14, H 2.96, P 3.06, I 4.01, N 2.77, R 3.16, K 2.3, T 3.33, M 2.91, Q 3.53
G13: A 3.85, F 2.69, C 3.22, E 4.05, D 3.65
G1: M 2.71, A 3.28, P 3.26, N 3.51, K 2.91, T 2.94, Y 3.13, I 2.92, F 3.06, H 3.1, E 3.57, W 2.54, V 2.49, L 3.32, C 2.88, D 3.66, R 3.26, Q 3.24, S 2.99
P8: N 3.24, Y 2.49, A 3.07, F 2.36, C 2.27, V 2.2, T 2.85, D 3.84, I 2.31, L 2.6, R 3.14, H 2.56, G 3, W 2.29, M 2.63, S 2.82, Q 2.79, K 2.52, E 3.66
I12: A 3.9, G 4.08, E 4.45, C 3.27, S 3.83, M 3.38, H 3.75, P 3.72, V 3.22, Q 4.11, R 3.12, Y 3.69, D 4.45, N 3.55, F 3.09, T 3.7, W 2.81, K 3.03, L 3.06
K9: M 2.93, Q 3.25, W 2.63, P 3.42, Y 3.43, N 3.53, E 3.82, I 2.58, F 2.8, C 2.28, H 3.08, D 3.33, G 3.14, A 3.76, T 2.95, V 2.49, R 3.07, L 2.34, S 3.48
T4: G 3.14, H 3.19, Q 3.08, N 3.07, C 2.94, S 3.08, L 3.38, W 2.36, M 3.01, E 3.51, A 3.63, Y 3.26, P 3.06, D 2.96, K 2.13, R 3.44, V 2.98, F 2.35, I 2.75
S6: L 3.03, A 2.87, H 2.76, G 2.55, N 2.8, D 3.25, I 2.75, T 2.68, K 2.12, Y 2.59, M 3.91, Q 2.85, V 2.46, F 1.88, E 3.45, P 2.95, W 2.19, R 3.75, C 2.75
W10: V 3.67, H 3.99, Q 3.5, N 4.19, T 3.42, R 4.22, F 3.26, E 4.28, C 2.93, A 3.71, S 4.2, P 3.81, D 4.58, L 3.06, K 3.57, M 3.27, G 3.97, I 2.86, Y 3.14
P7: L 2.33, Q 3.04, W 2.08, K 3.23, C 2.59, M 2.33, D 3.09, I 2.46, V 2.62, E 3.04, H 2.89, G 2.52, F 3.61, R 2.63, S 2.45, N 2.88, A 2.92, T 2.23, Y 2.14
G3: H 2.94, T 3.54, C 3.6, N 3.51, A 3.42, V 3.41, P 3.14, M 3.01, Y 3.63, E 3.07, D 3.19, L 3.45, W 2.49, K 2.64, S 2.87, R 3.14, Q 3.8, I 3, F 2.89
G5: L 2.9, V 3.09, E 3.21, D 3.15, F 2.46, R 2.77, H 3.12, I 2.74, P 2.83, K 2.15, M 2.4, Q 3.49, T 3, C 2.86, S 3.01, A 3.39, W 2.21, Y 3.02, N 3.28

Variants of: B2
Experiment: as above
Conditions: c terminus: a fixed tail appended

Protein stability index, by site and new letter:
V23: C 2.95, I 1.74, N 2.58, L 1.91, K 2.38, P 2.81, T 2.48, R 2.54, G 2.52, E 2.75, Q 2.56, W 2.39, S 2.96, D 3.06, H 1.98, Y 1.98, A 2.39, M 2.29, F 1.89
I20: P 2.24, M 2.35, D 2.75, Y 1.7, T 2.27, A 2.13, F 2.54, N 2.65, H 2.96, L 2.11, Q 2.31, K 2.15, E 2.69, R 2.53, W 1.27, G 2.69, V 2.84, S 3.25
Q22: C 1.72, P 2.47, H 2.27, K 1.77, D 2.75, A 1.94, S 2.06, R 2.08, M 1.73, N 2.31, L 1.7, E 3.2, V 2.81, T 2.1, I 1.52, W 2.09, Y 1.86, F 1.73, G 2.36
T24: C 1.31, L 2.21, M 1.73, K 2.6, S 2.1, Y 2, H 2.57, A 1.59, G 2.31, Q 2.68, D 2.64, F 1.62, R 2.14, P 2.08, N 2.92, I 2.48, V 1.9, E 2.33
S21: E 2.75, N 2.14, Q 1.89, P 2.41, H 1.8, V 1.9, Y 1.57, L 2.59, D 2.72, W 2.92, R 1.76, C 1.53, K 2.35, M 3.09, I 2.64, A 1.64, G 2.26, T 2.49, F 1.82
F19: S 2.01, T 2.7, P 2.4, R 3.85, W 1.9, Y 1.94, N 2.92, Q 2.81, V 2.28
